For this data set, the target named is FLAG-WRN K577M/E84A (UniProt Q14191 1-1432, E84A;K577M). Nature of the data set: EMSA; 2 mM ATPgS, 5 mM MgCl2; affinity similar to WT; Kd is only in Supp Fig 1e, value not in material; 35 mM Tris-HCl pH 7.5, 20 mM KCl, 5 mM MgCl2, 0.1 mg/ml BSA, 2 mM DTT, 5% glycerol, 2 mM ATPgS, 2 nM DNA, 15 min at RT; 5% 1x TBE native PAGE at 4 C. The conditions noted are these: protein: recombinant; tags: N-terminal FLAG (6xHis removed with TEV); label: 5' 32P on oligo B (as described for the CF preparation); four-strand regressed fork: AB partial duplex annealed to CD partial duplex. (A gel shift assay detects complexes by their altered migration in electrophoresis.)
FLAG-WRN K577M/E84A, sequence (Q14191 whole entry E84A/K577M): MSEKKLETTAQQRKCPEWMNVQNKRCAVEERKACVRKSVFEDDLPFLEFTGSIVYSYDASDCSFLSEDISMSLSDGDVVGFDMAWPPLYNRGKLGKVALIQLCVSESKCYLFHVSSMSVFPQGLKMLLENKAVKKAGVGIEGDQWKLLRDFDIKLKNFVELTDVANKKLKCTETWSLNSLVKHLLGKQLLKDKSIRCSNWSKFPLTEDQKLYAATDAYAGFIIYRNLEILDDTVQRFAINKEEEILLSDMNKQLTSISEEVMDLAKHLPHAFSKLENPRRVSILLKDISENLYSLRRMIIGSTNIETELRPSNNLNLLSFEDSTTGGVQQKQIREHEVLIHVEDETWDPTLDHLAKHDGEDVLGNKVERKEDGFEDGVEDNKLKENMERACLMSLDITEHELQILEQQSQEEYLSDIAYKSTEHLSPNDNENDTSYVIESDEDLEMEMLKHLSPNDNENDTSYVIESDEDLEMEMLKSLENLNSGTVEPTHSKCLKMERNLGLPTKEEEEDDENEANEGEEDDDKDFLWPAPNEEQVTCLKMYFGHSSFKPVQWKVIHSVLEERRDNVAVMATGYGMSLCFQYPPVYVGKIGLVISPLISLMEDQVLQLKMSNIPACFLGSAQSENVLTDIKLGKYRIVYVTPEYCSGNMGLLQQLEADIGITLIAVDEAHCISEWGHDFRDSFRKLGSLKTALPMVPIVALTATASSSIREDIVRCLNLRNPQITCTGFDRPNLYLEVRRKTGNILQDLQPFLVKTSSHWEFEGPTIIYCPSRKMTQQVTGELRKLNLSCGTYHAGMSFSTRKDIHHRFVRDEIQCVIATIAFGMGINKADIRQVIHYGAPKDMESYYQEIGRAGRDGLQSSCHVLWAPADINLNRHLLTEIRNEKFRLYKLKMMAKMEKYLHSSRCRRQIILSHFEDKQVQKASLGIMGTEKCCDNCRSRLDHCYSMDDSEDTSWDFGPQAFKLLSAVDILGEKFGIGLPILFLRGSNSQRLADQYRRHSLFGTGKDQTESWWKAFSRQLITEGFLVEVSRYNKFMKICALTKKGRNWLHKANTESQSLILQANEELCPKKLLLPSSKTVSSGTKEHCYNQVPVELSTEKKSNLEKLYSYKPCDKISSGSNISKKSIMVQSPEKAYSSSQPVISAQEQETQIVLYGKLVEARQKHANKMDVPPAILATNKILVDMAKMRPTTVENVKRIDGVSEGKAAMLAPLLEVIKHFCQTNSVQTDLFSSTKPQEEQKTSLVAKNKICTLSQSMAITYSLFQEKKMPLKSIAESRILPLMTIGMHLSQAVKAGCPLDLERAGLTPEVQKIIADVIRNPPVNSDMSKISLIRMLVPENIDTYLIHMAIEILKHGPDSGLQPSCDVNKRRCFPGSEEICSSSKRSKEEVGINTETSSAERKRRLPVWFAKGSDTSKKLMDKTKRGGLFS

B1: chicken-foot (CF) reversed fork substrate, oligos A+B+C+D (structured_DNA)
DNA 1: CTTTAGCTGCATATTTACAACATGTTGACCTTCAGTACAATCTGCTCTGATGCCGCATAGTGTCATGCCAGAGCTTTGTAC
DNA 2: CGGGTGTCGGGGCGCATGACACTATGCGGCATCAGAGCAGATTGTACTGAAGGTCAACATGTTGTAAATATGCAGCTAAAG
DNA 3: GTACAAAGCTCTGGCATGATACTATGCGGCATCAGAGCAGATT
DNA 4: TCAGTACAATCTGCTCTGATGCCGCATAGTATCATGCGCCCCGACACCCG
modifications: iMe-isodC at position 38 of oligo A (written as C)
With B1, the binding result is given as “binds”.
